Paper PMC11228984, “TREK2 Lipid Binding Preferences Revealed by Native Mass Spectrometry” (Journal of the American Society for Mass Spectrometry, 2024)

Target: the molecule itself
Experiment: native MS; 200 mM ammonium acetate, 0.062% C10E5, nanoelectrospray, Orbitrap EMR, room temperature; sample expressed with kifunensine and treated with EndoH

B1: TREK2^N84Q (TREK2 residues 55-335, T58A, N144Q, C-terminal StrepTag-II) (domain or fragment, UniProt P57789-1 55-335, looked up)
chain: MEGASQGGLQTVMKWKTVVAIFVVVVVYLVTGGLVFRALEQPFESSQKNTIALEKAEFLRDHVCVSPQELETLIQHALDADNAGVSPIGQSSNNSSHWDLGSAFFFAGTVITTIGYGNIAPSTEGGKIFCILYAIFGIPLFGFLLAGIGDQLGTIFGKSIARVEKVFRKKQVSQTKIRVISTILFILAGCIVFVTIPAVIFKYIEGWTALESIYFVVVTLTTVGFGDFVAGGNAGINYREWYKPLVWFWILVGLAYFAAVLSMIGDWLRVLSKKTKEEVGE
modifications: remaining inner core GlcNAc on Asn after EndoH cleavage; potential modifications of the glycan
notes: TREK2, two-pore domain potassium channel, UniProt P57789-1, residues 55-335 with T58A; The text introduces the mutant as N144Q and then calls it TREK2^N84Q; The Addgene plasmid is named for the parent construct with T58A; also called TREK2 N144Q
stoichiometry N: 2
